Laboratory results: PMC10616090, “Tailoring FPOX enzymes for enhanced stability and expanded substrate recognition” (Scientific Reports, 2023)
Where no end group is shown, it is not given here.

B1: fructosyl-Val-His-Leu-Thr-Pro-Glu hexapeptide (F6P) (peptide)
peptide: {1‑deoxyfructosyl}-VHLTPE
B2: PnFPOX (WT) (Parastagonospora nodorum SN15) (protein)
chain: MAPSRANTSVIVVGGGGTIGSSTALHLVRSGYTPSNVTVLDAYPIPSSQSAGNDLNKIMGVSLRNPVDLQLALEARQMWNEDELFKKFFHNTGRLDCAHGEKDIADLKSGYQALVDAGLDATNEWLDSEDEILKRMPLLSRDQIKGWKAIFSKDGGWLAAAKAINAVGEYLRDQGVRFGFYGAGSFKAPLLAEGVCIGVETVDGTRYYADKVVLAAGAWSPTLVELHEQCVSKAWVYGHIQLTPEEAARYKNSPVVYNGDVGFFFEPNEHGVIKVCDEFPGFTRFKMHQPFGAKAPKRISVPRSHAKHPTDTIPDASDVSIRRAIATFMPQFKNKKMFNQAMCWCTDTADAALLICEHPEWKNFVLATGDSGHSFKLLPNIGKHVVELLEGTLADDLAHAWRWRPGSGDALKSRRSAPAKDLADMPGWNHDKPRANL
notes: C-terminal 6His tag (kept), recombinant in E. coli BL21 Star (DE3); pET15b or pET17b; FAD enzyme

Columns and labels:
[1] = biological target: X02C variant of PnFPOX (derived from L3-35A through X02A) (Phaeosphaeria nodorum)
[2] = biological target: Phaeosphaeria nodorum fructosyl peptide oxidase (PnFPOX), wild type (Phaeosphaeria nodorum)
[3] = substrate: CC(C)[C@H](NC[C@@]1(O)OC[C@@H](O)[C@@H](O)[C@@H]1O)C(=O)O; assay: glucosone release, o-phenylenediamine, A322, Lineweaver-Burk fit; assay type: biochemical, Parastagonospora nodorum; conditions: 20 mM Tris HCl pH 7.4, 25 °C, 20 mM o-phenylenediamine, substrate 0.05-10 mM
Source text: glucosone release, o-phenylenediamine, A322, Lineweaver-Burk fit on PnFPOX (WT)

Row | Binder | Km for F6P in the enzymatic activity assay (glucosone release at 322 nm, F6P 0.05 to 1 mM, Lineweaver-Burk fit) [1] [µM] | Km for F6P in the enzymatic activity assay (glucosone release at 322 nm, F6P 0.05 to 1 mM, Lineweaver-Burk fit) [2] [µM] | Km [3] [µM] | Vmax [3] [µM/min] | kcat [3] [s⁻¹] | kcat/Km [3] [M⁻¹ s⁻¹]
1 | B1 | 30 | 810 |  |  |  | 
2 | B2 |  |  | 5930 ± 1610 | 41700 | 99.3 ± 19.9 | 16800
